Measured values: patent US20120282183A1

Tests used:
[1] = molecular target: murine CXCR4 on mouse ES cells and mouse embryo fibroblasts (mouse) (UniProt P70658); experiment: cell-based or functional assay
[2] = molecular target: murine CXCR6 on differentiated WT ES cells (mouse) (UniProt Q9EQ16); experiment: cell-based or functional assay
Sequence of murine CXCR6 on differentiated WT ES cells (mouse) (Q9EQ16 whole entry): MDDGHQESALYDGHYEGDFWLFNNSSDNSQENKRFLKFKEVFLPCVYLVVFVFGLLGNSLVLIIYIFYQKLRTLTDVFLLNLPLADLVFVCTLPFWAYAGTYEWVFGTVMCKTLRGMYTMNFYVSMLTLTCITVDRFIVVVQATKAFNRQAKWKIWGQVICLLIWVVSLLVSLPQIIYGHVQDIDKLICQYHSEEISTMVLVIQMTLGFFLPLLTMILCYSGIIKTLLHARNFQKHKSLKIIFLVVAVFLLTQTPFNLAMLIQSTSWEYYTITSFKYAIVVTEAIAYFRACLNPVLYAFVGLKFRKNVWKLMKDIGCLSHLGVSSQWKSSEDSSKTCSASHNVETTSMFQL

Sequence of murine CXCR4 on mouse ES cells and mouse embryo fibroblasts (mouse) (P70658 whole entry): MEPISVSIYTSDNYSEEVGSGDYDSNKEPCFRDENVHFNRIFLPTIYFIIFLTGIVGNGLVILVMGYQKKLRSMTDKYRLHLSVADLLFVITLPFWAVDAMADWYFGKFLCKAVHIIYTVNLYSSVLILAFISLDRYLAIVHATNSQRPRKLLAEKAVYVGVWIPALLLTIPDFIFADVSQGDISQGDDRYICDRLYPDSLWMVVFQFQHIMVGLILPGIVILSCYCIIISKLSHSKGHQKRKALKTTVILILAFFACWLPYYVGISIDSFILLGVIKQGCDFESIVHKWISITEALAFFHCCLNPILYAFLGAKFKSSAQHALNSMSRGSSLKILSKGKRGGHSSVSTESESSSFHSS

CXCL12 chemotaxis of differentiating WT-ES cells [1] [fold]	chemotaxis of differentiated WT ES cells towards CXCL16 [2] [fold]	Substance
> 2		chemokine CXCL12 (R&D systems) (ligand)
	2	chemokine CXCL16 (R&D) (ligand)
